Experimental data: publication PMC13391367

How the values were obtained:
[1] = target: UAP56 (10×His–3C–UAP56) (UniProt Q13838)
[2] = target: LENG8–PS^M (10×His–MBP–LENG8^491–800, 3×V5–PCID2, SEM1) (human) (UniProt Q96PV6); experiment: grating-coupled interferometry; V5-tagged LENG8–PS^M or SAC3D1–PS^M captured on an amine-coupled anti-V5 antibody (Creoptix WAVE, 4PCP chip); UAP56 injected as a 1:2 dilution series from 5 µM, with or without 200 µM 15U RNA, 25 mM HEPES pH 7.9, 50 mM KCl, 1 mM MgCl2, 1 mM TCEP, with and without 1 mM ATP, 25 °C; one-to-one model
[3] = target: SAC3D1–PS^M (10×His–MBP–SAC3D1^48–404, 3×V5–PCID2, SEM1) (human) (UniProt A6NKF1); experiment: as above

Sequence of UAP56 (10×His–3C–UAP56) (Q13838 whole entry): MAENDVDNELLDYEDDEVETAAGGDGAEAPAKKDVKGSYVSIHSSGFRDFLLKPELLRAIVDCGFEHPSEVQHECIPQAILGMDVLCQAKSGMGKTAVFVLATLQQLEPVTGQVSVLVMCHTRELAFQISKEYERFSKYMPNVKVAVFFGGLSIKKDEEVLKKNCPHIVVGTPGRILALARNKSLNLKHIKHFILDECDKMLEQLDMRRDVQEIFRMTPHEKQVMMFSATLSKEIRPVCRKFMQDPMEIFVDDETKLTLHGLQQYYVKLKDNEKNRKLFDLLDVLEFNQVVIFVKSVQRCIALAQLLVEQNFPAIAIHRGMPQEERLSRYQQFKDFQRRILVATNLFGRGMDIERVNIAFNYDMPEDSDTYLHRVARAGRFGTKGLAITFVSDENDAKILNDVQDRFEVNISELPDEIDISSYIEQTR
Sequence of UAP56(Δ1–43) (10×His–3C–UAP56(Δ1–43), residues 44–428) (Q13838 44-428, stated change not applied): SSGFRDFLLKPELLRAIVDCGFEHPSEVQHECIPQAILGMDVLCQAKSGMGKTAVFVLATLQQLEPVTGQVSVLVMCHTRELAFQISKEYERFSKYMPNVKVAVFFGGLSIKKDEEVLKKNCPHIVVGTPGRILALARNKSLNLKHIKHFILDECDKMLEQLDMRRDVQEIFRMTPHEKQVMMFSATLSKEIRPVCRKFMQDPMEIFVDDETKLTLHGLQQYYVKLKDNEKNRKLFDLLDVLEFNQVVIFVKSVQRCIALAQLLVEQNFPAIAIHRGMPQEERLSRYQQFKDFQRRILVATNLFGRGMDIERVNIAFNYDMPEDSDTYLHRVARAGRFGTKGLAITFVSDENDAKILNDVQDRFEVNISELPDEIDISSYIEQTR

fold stimulation of the apparent ATPase rate of UAP56 with RNA and ATP (NADH-coupled assay) [1] [fold] | fold reduction of affinity against UAP56 [2] [fold] | fold reduction of affinity against UAP56 [3] [fold] | Substance
290 | – | – | LENG8–PS^M (10×His–MBP–LENG8^491–800, 3×V5–PCID2, SEM1) (from UniProt Q96PV6 491-800; Q5JVF3 1-399; P60896 1-70) (complex)
60 | – | – | SAC3D1–PS^M (10×His–MBP–SAC3D1^48–404, 3×V5–PCID2, SEM1) (from UniProt A6NKF1 48-404; Q5JVF3 1-399; P60896 1-70) (complex)
– | > 30 | > 30 | UAP56(Δ1–43) (10×His–3C–UAP56(Δ1–43), residues 44–428) (from UniProt Q13838 44-428) (domain or fragment)
